How the values were obtained:
Test in all cases: SPR; Biacore S200; Bcl-2 family proteins immobilised on CM5 (amine coupling or His-Capture Kit); peptides and flag-tagged proteins as analytes, single-cycle kinetics, HBS-EP, 25 °C; 1:1 Langmuir model; absence of binding probed at 100 nM and 3 µM
[1] = molecular target: Bcl-xL (human) (UniProt Q07817)
[2] = molecular target: Bcl-2 (human) (UniProt P10415)
[3] = molecular target: His-tagged human Mcl-1 (human) (UniProt Q07820)
His-tagged human Mcl-1 (human), sequence (Q07820 whole entry): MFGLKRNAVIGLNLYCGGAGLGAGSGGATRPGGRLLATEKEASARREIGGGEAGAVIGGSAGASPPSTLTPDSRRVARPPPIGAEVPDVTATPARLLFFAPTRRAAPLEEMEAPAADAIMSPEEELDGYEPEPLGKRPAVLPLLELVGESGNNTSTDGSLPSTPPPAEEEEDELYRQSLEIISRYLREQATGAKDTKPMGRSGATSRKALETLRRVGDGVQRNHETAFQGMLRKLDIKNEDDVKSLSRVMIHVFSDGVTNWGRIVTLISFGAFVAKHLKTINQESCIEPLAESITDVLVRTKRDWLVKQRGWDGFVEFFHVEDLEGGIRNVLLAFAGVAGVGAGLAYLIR

Bim BH3 peptide (25-mer, residues 141-165), sequence (peptide): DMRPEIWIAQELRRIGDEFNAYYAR
Bcl-xL (human), sequence (Q07817 whole entry): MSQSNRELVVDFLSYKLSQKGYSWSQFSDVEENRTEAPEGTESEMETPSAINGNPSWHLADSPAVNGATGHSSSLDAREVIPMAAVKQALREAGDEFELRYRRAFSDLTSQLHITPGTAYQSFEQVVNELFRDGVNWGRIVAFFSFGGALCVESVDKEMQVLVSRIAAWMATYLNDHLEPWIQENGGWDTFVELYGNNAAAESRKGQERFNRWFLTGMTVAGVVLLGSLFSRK

| Kd [1] | Kd [2] | Kd [3] | Substance |
| --- | --- | --- | --- |
| 12.2 nM | 115 nM | 0.82 nM | Bim (A149I) peptide |
| 3.3 nM | 14.2 nM | 0.37 nM | Bim BH3 peptide (25-mer, residues 141-165) |

— publication PMC8316464
